Target: Wild-type CFTR (cystic fibrosis transmembrane conductance regulator) N-terminally labelled with GFP or RFP (UniProt P13569)
Assay: FRET or BRET; acceptor-photobleaching FRET between GFP-CFTR (donor) and RFP-CFTR (acceptor) in fixed HEK293T cells, measured intracellularly, basal conditions (air exposure)

FRET efficiency (%E): 0%
Substance: Wild-type CFTR (cystic fibrosis transmembrane conductance regulator) N-terminally labelled with GFP or RFP (from UniProt P13569 1-1480) (natural protein)

From PMC6754399
